US20230203100A1, “COMPOSITIONS INCLUDING MULTI-AGONIST PEPTIDES AND METHODS OF MANUFACTURE AND USE” (Pep2Tango Therapeutics Inc., priority 2021, published 2023)
Like-named read-outs stand apart in the source and are kept apart here. Starred links: 1 amine or outer side, 2 acyl side, 3 side chain; linkers in the order of their positions; H or OH if unused. Non-standard residues stand in square brackets, D forms with d. Groups on a side chain read outwards from the residue. γGlu = O=C(O)[C@H](CCC(=O)[*:2])N[*:1]; C(:O)(CH2)nR3 = not defined here; Aib = CC(C)(N)C(=O)O

Legend:
[1] = cited from earlier work
[2] = biological target: Human GLP-1 receptor (human) (UniProt P43220)
[3] = in vivo; cited from earlier work
[4] = biological target: T1, Human GIP receptor (human, UniProt P48546); experiment: cell-based or functional assay
T1 sequence: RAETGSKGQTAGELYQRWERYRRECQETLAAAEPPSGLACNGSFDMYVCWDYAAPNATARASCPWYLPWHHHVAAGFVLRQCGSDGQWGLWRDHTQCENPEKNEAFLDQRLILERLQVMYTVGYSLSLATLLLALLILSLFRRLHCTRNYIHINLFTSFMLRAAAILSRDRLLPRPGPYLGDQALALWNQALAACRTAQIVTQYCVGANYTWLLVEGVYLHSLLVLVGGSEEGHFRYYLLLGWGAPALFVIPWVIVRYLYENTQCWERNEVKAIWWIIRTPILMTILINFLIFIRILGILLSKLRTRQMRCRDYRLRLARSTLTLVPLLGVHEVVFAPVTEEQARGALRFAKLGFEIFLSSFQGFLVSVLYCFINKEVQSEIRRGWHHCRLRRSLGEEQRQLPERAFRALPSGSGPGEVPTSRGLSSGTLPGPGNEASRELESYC

[5] = biological target: T2, Human AMY3 receptor (CT/RAMP3) (human, UniProt P30988); experiment: cell-based or functional assay
T2 sequence 1: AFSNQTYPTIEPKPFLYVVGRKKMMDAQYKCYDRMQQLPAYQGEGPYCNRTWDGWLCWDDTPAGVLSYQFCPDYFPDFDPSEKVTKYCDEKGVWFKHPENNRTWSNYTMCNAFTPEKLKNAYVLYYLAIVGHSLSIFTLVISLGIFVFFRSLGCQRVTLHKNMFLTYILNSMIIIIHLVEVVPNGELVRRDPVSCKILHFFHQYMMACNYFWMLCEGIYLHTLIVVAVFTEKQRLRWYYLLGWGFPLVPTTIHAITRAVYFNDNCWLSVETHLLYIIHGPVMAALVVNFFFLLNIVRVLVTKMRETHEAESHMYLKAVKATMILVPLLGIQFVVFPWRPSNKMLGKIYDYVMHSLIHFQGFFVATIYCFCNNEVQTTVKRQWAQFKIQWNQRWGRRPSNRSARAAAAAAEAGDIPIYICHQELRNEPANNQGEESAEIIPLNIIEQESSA
T2 sequence 2: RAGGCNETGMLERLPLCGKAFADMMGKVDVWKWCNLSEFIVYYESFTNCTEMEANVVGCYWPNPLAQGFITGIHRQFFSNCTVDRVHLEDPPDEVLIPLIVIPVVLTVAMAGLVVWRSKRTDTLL

[6] = biological target: Human GLP-1 receptor (human, UniProt P43220); experiment: cell-based or functional assay
[7] = biological target: T3, Human calcitonin receptor (human, UniProt P30988); experiment: cell-based or functional assay
T3 sequence: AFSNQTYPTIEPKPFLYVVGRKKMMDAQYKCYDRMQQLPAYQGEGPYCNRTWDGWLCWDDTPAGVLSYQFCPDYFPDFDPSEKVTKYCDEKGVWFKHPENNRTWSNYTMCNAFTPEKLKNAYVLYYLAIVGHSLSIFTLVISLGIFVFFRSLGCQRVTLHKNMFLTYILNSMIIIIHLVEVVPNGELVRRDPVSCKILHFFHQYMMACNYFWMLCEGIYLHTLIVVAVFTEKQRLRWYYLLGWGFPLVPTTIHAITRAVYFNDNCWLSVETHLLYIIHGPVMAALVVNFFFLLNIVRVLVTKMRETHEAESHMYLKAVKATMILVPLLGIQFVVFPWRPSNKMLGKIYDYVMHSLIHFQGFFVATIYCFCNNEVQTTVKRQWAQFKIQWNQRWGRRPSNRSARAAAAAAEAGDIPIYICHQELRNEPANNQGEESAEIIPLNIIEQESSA

[8] = Acute food intake in lean rats after single s.c. administration; type: in vivo, Sprague Dawley male rats; settings: 50 nmoles/kg single s.c., mean +/- SEM
Experimental: (§2) Sprague Dawley male rats (5 weeks of age) were purchased from Charles River (Spain) and single housed for individual registration of food consumption. […] Rats were fed ad libitum a standard rodent chow diet (CHD) (A04, U8220G10R, SAFE).
(§3) For all experimental groups, food was replaced immediately after lights were turned off.
(§4) Food intake was measured at different time-intervals post-injection up to 72 h using a precision balance. Cumulative food intake was calculated for the indicated time-periods. Body weight was measured at the indicated time-periods. Mean accumulated food intake in each dose group was compared to vehicle and reported as a percentage of mean food intake in the vehicle group, which was defined as 100%.
(§5) All data shown are the mean ± standard error (SEM).

[9] = Acute food intake in lean mice after single s.c. administration; type: in vivo, C57BL/6j male mice; settings: 50 nmoles/kg single s.c., time period not given, mean±SEM
Experimental: (§1) Differences were considered statistically significant at p<0.05. Data analysis was carried out with GraphPad software (GraphPad Prism).

[10] = Blood glucose after single s.c. administration in non-fasted mice; type: in vivo; settings: 50 nmoles/Kg single s.c., mean±SEM
Experimental: as §1

[11] = Body weight in lean rats after single s.c. administration; type: in vivo, Sprague Dawley male rats; settings: mean±SEM
Experimental: as §2, §3, §4, §5

Chain of Exendin-4 (P26349 48-86 limits assumed): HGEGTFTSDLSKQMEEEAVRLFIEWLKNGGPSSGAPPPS

| Molecule | EC50 (nM), cAMP cell-based agonist assay [4] [nM] | EC50 (nM), cAMP cell-based agonist assay [5] [nM] | EC50 (nM), cAMP cell-based agonist assay [6] [nM] | EC50 (nM), cAMP cell-based agonist assay [7] [nM] | further results |
| --- | --- | --- | --- | --- | --- |
| CC[C@H](C)[C@H](NC(=O)[C@H](CO)NC(=O)[C@H](Cc1ccc(O)cc1)NC(=O)[C@H](CC(=O)O)NC(=O)[C@H](CO)NC(=O)[C@@H](NC(=O)[C@H](Cc1ccccc1)NC(=O)[C@@H](NC(=O)CNC(=O)[C@H](CCC(=O)O)NC(=O)[C@H](C)NC(=O)[C@@H](N)Cc1ccc(O)cc1)[C@@H](C)O)[C@@H](C)CC)C(=O)N[C@@H](C)C(=O)N[C@@H](CCSC)C(=O)N[C@@H](CC(=O)O)C(=O)N[C@@H](CCCCN)C(=O)N[C@H](C(=O)N[C@@H](Cc1c[nH]cn1)C(=O)N[C@@H](CCC(N)=O)C(=O)N[C@@H](CCC(N)=O)C(=O)N[C@@H](CC(=O)O)C(=O)N[C@@H](Cc1ccccc1)C(=O)N[C@H](C(=O)N[C@@H](CC(N)=O)C(=O)N[C@@H](Cc1c[nH]c2ccccc12)C(=O)N[C@@H](CC(C)C)C(=O)N[C@@H](CC(C)C)C(=O)N[C@@H](C)C(=O)N[C@@H](CCC(N)=O)C(=O)N[C@@H](CCCCN)C(=O)NCC(=O)N[C@@H](CCCCN)C(=O)N[C@@H](CCCCN)C(=O)N[C@@H](CC(N)=O)C(=O)N[C@@H](CC(=O)O)C(=O)N[C@@H](Cc1c[nH]c2ccccc12)C(=O)N[C@@H](CCCCN)C(=O)N[C@@H](Cc1c[nH]cn1)C(=O)N[C@@H](CC(N)=O)C(=O)N[C@H](C(=O)N[C@H](C(=O)N[C@@H](CCC(N)=O)C(=O)O)[C@@H](C)O)[C@@H](C)CC)C(C)C)[C@@H](C)CC [GIP, glucose-dependent insulinotropic polypeptide] | – | – | – | – | half-life of intact GIP ([1]; diabetic subjects): ~5.2 min; half-life of intact GIP ([1]; healthy subjects): approximately 7.3 minutes |
| Exendin-4 (from UniProt P26349) (ligand) | – | – | – | – | EC50 (nM), cAMP cell-based agonist assay [2]: 0.007 nM |
| glucagon-like peptide-1 [GLP-1] | – | – | – | – | metabolic clearance rate of active GLP-1 [3]: 12 to 13 min |
| (d)YAEGTFTSDYSIALDKIAQQAFVQWLLAGGPSCNTATCVLGRLSQELHRLQTYPRTNTGK*-N-T-Y-NH2 (not fully specified (residue 60); also: acyl end R3 and chain length n (12-20) not fixed, K* indicates a linking group, e.g. Lys-γGlu-γGlu—C(═O)(CH2)nR3) [dY]AEGTFTSDYSIALDKIAQQAFVQWLLAGGPSCNTATCVLGRLSQELHRLQTYPRTNTGKNTY-NH2 | – | – | – | – | Cumulative Food Intake Reduction vs. Vehicle (%) 12 hr. ([8]; cumulative to 12 hr.): 21.8 +/- 2.62%; Cumulative Food Intake Reduction vs. Vehicle (%) 24 hr. ([8]; cumulative to 24 hr.): 31.8 +/- 2.10%; Cumulative Food Intake Reduction vs. Vehicle (%) 48 hr. ([8]; cumulative to 48 hr.): 32.3 +/- 1.66%; Cumulative Food Intake Reduction vs. Vehicle (%) 72 hr. ([8]; cumulative to 72 hr.): 28.7 +/- 1.69%; Food Intake Reduction by Intervals vs. Vehicle (%) 0-12 hr. ([8]; interval 0-12 hr.): 21.8 +/- 2.62%; Food Intake Reduction by Intervals vs. Vehicle (%) 12-24 hr. ([8]; interval 12-24 hr.): 89.1 +/- 3.69%; Food Intake Reduction by Intervals vs. Vehicle (%) 24-48 hr. ([8]; interval 24-48 hr.): 32.8 +/- 3.69%; Food Intake Reduction by Intervals vs. Vehicle (%) 48-72 hr. ([8]; interval 48-72 hr.): 19.4 +/- 2.31%; Cumulative Food Intake Reduction Relative to Vehicle (%) ([9]; 1st of 4 value columns): 20.5±0.86%; Cumulative Food Intake Reduction Relative to Vehicle (%) ([9]; 2nd of 4 value columns): 25.3±1.93%; Cumulative Food Intake Reduction Relative to Vehicle (%) ([9]; 3rd of 4 value columns): 12.2±4.03%; Cumulative Food Intake Reduction Relative to Vehicle (%) ([9]; 4th of 4 value columns): 2.6±5.68%; Blood glucose 30 min ([10]; 30 min after injection): 140.4 ± 8.41 mg/dL; Blood glucose 120 min ([10]; 120 min after injection): 138.4 ± 1.63 mg/dL; Blood glucose Time 0 ([10]; time 0 (baseline)): 159.6 ± 5.78 mg/dL; Body Weight Reduction (G) 24 h ([11]; 24 h): -9.0 ± 1.01 g; Body Weight Reduction (G) 48 h ([11]; 48 h): -13.0 ± 0.84 g; Body Weight Reduction (G) 72 h ([11]; 72 h): -14.8 ± 1.30 g |
| Peptide No. 10 (reading uncertain; also: K* acyl n and R3 not given here, acetate salt, printed as Y-Aib-E-G-T-F-T-S-D-Y-S-I-Aib-L-D-K-I-A-Q-K*-AFVQWLLAGGPSCNTATCATQRLANFLVHSSNNFGPILPPTNVGSNTY-NH2) peptide: Y[Aib]EGTFTSDYSI[Aib]LDKIAQK([γGlu-γGlu-C(:O)(CH2)nR3])AFVQWLLAGGPSCNTATCATQRLANFLVHSSNNFGPILPPTNVGSNTY-NH2 | 0.05 | 7 | 3.87 | 12.4 | – |

Further lines, with some results ahead:

| EC50 (nM), cAMP cell-based agonist assay [4] [nM] | EC50 (nM), cAMP cell-based agonist assay [5] [nM] | EC50 (nM), cAMP cell-based agonist assay [6] [nM] | EC50 (nM), cAMP cell-based agonist assay [7] [nM] | Molecule | further results |
| --- | --- | --- | --- | --- | --- |
| 0.13 | 1.1 | 5.2 | 0.071 | Peptide No. 15 (reading uncertain; also: K* n and R3 not given here, acetate salt) peptide: Y[dA]EGTFTSDYSIALDKIAQQAFVQWLLAGGPSCNTATCVLGRLSQELHRLQTYPRTNTGK([γGlu-γGlu-C(:O)(CH2)nR3])NTY-NH2 | – |
| 20 | 1.6 | 43 | 0.11 | Peptide No. 21 (reading uncertain; also: K* n and R3 not given here, acetate salt) peptide: [dY]AEGTFTSDYSIQLDKIAQQAFVQWLLAGSGCNTATCVLGRLSQELHRLQTYPRTNTGK([γGlu-γGlu-C(:O)(CH2)nR3])NTY-NH2 | – |
| 0.81 | 1.3 | 5.7 | 0.1 | Peptide No. 17 (reading uncertain; also: K* n and R3 not given here, acetate salt) peptide: [dY]AEGTFTSDYSIALDKIAQQAFVQWLLAGGPSCNTATCVLGRLSQELHRLQTYPRTNTGK([γGlu-γGlu-C(:O)(CH2)nR3])NTY-NH2 | – |
| 16 | 15 | 42 | 5.78 | Peptide No. 22 (reading uncertain; also: K* n and R3 not given here, acetate salt) peptide: [dY]AEGTFTSDYSIQLDKIAQQAFVQWLLAGSGCNTATCATQRLANFLVHSSNNFGPILPPTNVGK([γGlu-γGlu-C(:O)(CH2)nR3])NTY-NH2 | – |
| 4.6 | 1.03 | 8.23 | 0.1 | Peptide No. 19 (reading uncertain; also: K* n and R3 not given here, acetate salt) peptide: [dY]AEGTFTSDYSIQLDKIAQQAFVQWLLAGGPSCNTATCVLGRLSQELHRLQTYPRTNTGK([γGlu-γGlu-C(:O)(CH2)nR3])NTY-NH2 | – |
